Results taken from PMC2713827, “Characterization of a Lamellocyte Transcriptional Enhancer Located within the misshapen Gene of Drosophila melanogaster”.

Biological target: T1, dFos DNA-binding domain;dJun DNA-binding domain (Drosophila melanogaster;Drosophila …, UniProt P21525;P18289 418-481;212-275, |)
T1 sequence 1: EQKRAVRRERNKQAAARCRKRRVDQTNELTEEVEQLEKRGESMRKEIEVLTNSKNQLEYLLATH
T1 sequence 2: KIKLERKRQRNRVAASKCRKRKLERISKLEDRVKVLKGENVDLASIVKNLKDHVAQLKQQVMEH
Assay: EMSA; 10 mM Tris-HCl pH 8.0, 10 mM DTT, 2.5 mM MgCl2, 10% glycerol, poly(dI-dC), BSA, 100 ng dJun and dFos, 1,000 cpm 32P probe; temperature not stated
Details: protein: recombinant;recombinant; tags: 6xHis;6xHis; copies: 1;1; label: 32P

B1: hMTII wt AP-1 probe (dsDNA)
DNA 1: GAGCCGCAAGTGACTCAGCGCGGGGCGTGTGCAG
DNA 2: CTGCACACGCCCCGCGCTGAGTCACTTGCGGCTC
- binding result: binds
